Reference: US11278600B2, “Human alpha-galactosidase variants” (Codexis, Inc., priority 2014, dated 2022)

What was measured:
Type in all cases: biochemical
[1] = HTP-analysis of yeast culture supernatants, no challenge (MUGal hydrolysis); conditions: activity of the variant/activity of Rd3BB (SEQ ID NO: 13)
Method in brief: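 GLA variants expressed in yeast INVSc1, secreted into SD-Ura broth over 66-84 h at 30° C; clarified supernatants tested without challenge. Supernatant mixed with McIlvaine buffer pH 4.8 and 2 mM MUGal (citrate/KCl, pH 4.6), 37° C for 30-180 min, carbonate-quenched, fluorescence Ex 355/Em 448 nm.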

[2] = HTP-analysis of supernatants pretreated with acid (MUGal hydrolysis); conditions: activity of the variant/activity of Rd3BB (SEQ ID NO: 13); challenge at pH 3.7
Method in brief: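 Yeast INVSc1 supernatant, GLA variants; acid challenge: McIlvaine pH 3.3-4.3, 37° C., 1-3 h. Assay: MUGal in McIlvaine pH 4.8 plus citrate pH 4.3, 37° C., 30-180 min, Na2CO3 stop, Ex 355/Em 448 nm.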

[3] = HTP-analysis of supernatants pretreated with base (MUGal hydrolysis); conditions: activity of the variant/activity of Rd3BB (SEQ ID NO: 13); challenge at pH 9.7
Method in brief: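 Fluorescence of released 4-MU (Ex 355 nm, Em 448 nm) after carbonate quench reports MUGal hydrolysis by GLA variants secreted from INVSc1 yeast. Before the acidic (pH 4.3-4.8) 30-180 min reaction at 37° C, supernatants had been pre-incubated at pH 7.0-9.7 for 1-18 h at 37° C.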

B1: 580 (protein)
chain: LDNGLARTPTMGWLHWERFMCNLDCQEEPDSCISEKLFMEMAERMVSEGWKDAGYEYLCIDDCWMAPQRDSEGRLQADPQRFPHGIRQLANHVHSKGLKLGIYADVGNKTCAGFPGSFGYYDIDAQTFADWGVDLLKFDGCYCDSLENLADGYKHMSLALNRTGRSIVYSCEWPLYMWPFQKPNYTEIRQYCNHWRNFADIDDSWASIKSILDWTSRNQERIVDVAGPGGWNDPDMLVIGNFGLSRDQQVTQMALWAIMAAPLFMSNDLRHISPQAKALLQDKDVIAINQDPLGKQGYQLRKGDNFEVWERPLSGDAWAVAIINRQEIGGPRSYTIPVASLGKGVACNPACFITQLLPVKRQLGFYNWTSRLKSHINPTGTVLLQLENTMQMSLKDLL
modifications: Synthetic Polypeptide sequence of Variant No. 580 of mature Human GLA
[1]
  Relative Activity of GLA Variants After No Challenge (NC): + (+ = 1.5 to 5 relative activity over Rd3BB (SEQ ID NO: 13))
[2]
  Relative Activity of GLA Variants After Challenge at pH 3.7: +++ (+++ = >10 relative activity over Rd3BB (SEQ ID NO: 13))
[3]
  Relative Activity of GLA Variants After Challenge at pH 9.7: ++ (++ = >5 to 10 relative activity over Rd3BB (SEQ ID NO: 13))

B2: 584 (protein)
chain: LDNGLARTPTMGWLHWERFMCNLDCQEEPDSCISEKLFMEMAERMVSEGWKDAGYEYLCIDDCWMAPQRDSEGRLQADPQRFPHGIRQLANHVHSKGLKLGIYADVGNKTCAGFPGSFGYYDIDAQTFADWGVDLLKFDGCYCDSLENLADGYKHMSLALNRTGRSIVYSCEWPLYMWPFQKPNYTEIRQYCNHWRNFADIDDSWASIKEILDWTSRNQERIVDVAGPGGWNDPDMLVIGNFGLSWDQQVTQMALWAIMAAPLFMSNDLRHISPQAKALLQDKDVIAINQDPLGKQGYQLRKGDNFEVWERPLSGDAWAVAIINRQEIGGPRSYTIPVASLGKGVACNPACFITQLLPVKRQLGFYNWTSRLKSHINPTGTVLLQLENTMQMSLKDLL
modifications: Synthetic Polypeptide sequence of Variant No. 584 of mature Human GLA
[1]
  Relative Activity of GLA Variants After No Challenge (NC): + (+ = 1.5 to 5 relative activity over Rd3BB (SEQ ID NO: 13))
[2]
  Relative Activity of GLA Variants After Challenge at pH 3.7: + (+ = 1.5 to 5 relative activity over Rd3BB (SEQ ID NO: 13))
[3]
  Relative Activity of GLA Variants After Challenge at pH 9.7: ++ (++ = >5 to 10 relative activity over Rd3BB (SEQ ID NO: 13))

B3: 520 (protein)
chain: LDNGLARTPTMGWLHWERFMCNLDCQEEPDSCISEKLFMEMAERMVSEGWKDAGYEYLCIDDCWMAPQRDSEGRLQSDPQRFPHGIRQLANHVHSKGLKLGIYADVGNKTCAGFPGSFGYYDIDAQTFADWGVDLLKFDGCYCDSLENLADGYKHMSLALNRTGRSIVYSCEWPLYMWPFQKPNYTEIRQYCNHWRNFADIDDSWASIKSILDWTSRNQERIVDVAGPGGWNDPDMLVIGNFGLSWDQQVTQMALWAIMAAPLFMSNDLRHISPQAKALLQDKDVIAINQDPLGKQGYQLRKGDNFEVWERPLSGDAWAVAIINRQEIGGPRSYTIPVASLGKGVACNPACFITQLLPVKRQLGFYNWTSRLKSHINPTGTVLLQLENTMQMSLKDLL
modifications: Synthetic Polypeptide sequence of Variant No. 520 of mature Human GLA
[1]
  Relative Activity of GLA Variants After No Challenge (NC): + (+ = 1.5 to 5 relative activity over Rd3BB (SEQ ID NO: 13))
[2]
  Relative Activity of GLA Variants After Challenge at pH 3.7: + (+ = 1.5 to 5 relative activity over Rd3BB (SEQ ID NO: 13))
[3]
  Relative Activity of GLA Variants After Challenge at pH 9.7: + (+ = 1.5 to 5 relative activity over Rd3BB (SEQ ID NO: 13))

B4: 583 (protein)
chain: LDNGLARTPTMGWLHWERFMCNLDCQEEPDSCISEKLFMEMAERMVSEGWKDAGYEYLCIDDCWMAPQRDSEGRLQADPQRFPHGIRQLANHVHSKGLKLGIYADVGNKTCAGFPGSFGYYDIDAQTFADWGVDLLKFDGCYCDSLENLADGYKHMSLALNRTGRSIVYSCEWPLYMWPFQKPNYTEIRQYCNHWRNFADIDDSWASIKAILDWTSRNQERIVDVAGPGGWNDPDMLVIGNFGLSWDQQVTQMALWAIMAAPLFMSNDLRHISPQAKALLQDKDVIAINQDPLGKQGYQLRKGDNFEVWERPLSGDAWAVAIINRQEIGGPRSYTIPVASLGKGVACNPTCFITQLLPVKRQLGFYNWTSRLKSHINPTGTVLLQLENTMQMSLKDLL
modifications: Synthetic Polypeptide sequence of Variant No. 583 of mature Human GLA
[1]
  Relative Activity of GLA Variants After No Challenge (NC): + (+ = 1.5 to 5 relative activity over Rd3BB (SEQ ID NO: 13))
[2]
  Relative Activity of GLA Variants After Challenge at pH 3.7: + (+ = 1.5 to 5 relative activity over Rd3BB (SEQ ID NO: 13))
[3]
  Relative Activity of GLA Variants After Challenge at pH 9.7: ++ (++ = >5 to 10 relative activity over Rd3BB (SEQ ID NO: 13))

B5: 582 (protein)
chain: LDNGLARTPTMGWLHWERFMCNLDCQEEPDSCISEKLFMEMAERMVSEGWKDAGYEYLCIDDCWMAPQRDSEGRLQADPQRFPHGIRQLANHVHSKGLKLGIYADVGNKTCAGFPGSFGYYDIDAQTFADWGVDLLKFDGCYCDSLENLADGYKHMSLALNRTGRSIVYSCEWPLYMWPFQKPNYTEIRQYCNHWRNFADIDDSWASIKAILDWTSRNQERIVDVAGPGGWNDPDMLVIGNFGLSWDQQVTQMALWAIMAAPLFMSNDLRHISPQAKALLQDKDVIAINQDPLGKQGYQLRKGDNFEVWERPLSGDAWAVAIINRQEIGGPRSYTIPVASLGKGVACNPACFITQLLPVKRQLGFYNWTSRLKSHINPTGTVLLQLENTMQMSLKDLL
modifications: Synthetic Polypeptide sequence of Variant No. 582 of mature Human GLA
[1]
  Relative Activity of GLA Variants After No Challenge (NC): + (+ = 1.5 to 5 relative activity over Rd3BB (SEQ ID NO: 13))
[2]
  Relative Activity of GLA Variants After Challenge at pH 3.7: + (+ = 1.5 to 5 relative activity over Rd3BB (SEQ ID NO: 13))
[3]
  Relative Activity of GLA Variants After Challenge at pH 9.7: ++ (++ = >5 to 10 relative activity over Rd3BB (SEQ ID NO: 13))

B6: 581 (protein)
chain: LDNGLARTPTMGWLHWERFMCNLDCQEEPDSCISEKLFMEMAERMVSEGWKDAGYEYLCIDDCWMAPQRDSEGRLQADPQRFPHGIRQLANHVHSKGLKLGIYADVGNKTCAGFPGSFGYYDIDAQTFADWGVDLLKFDGCYCDSLENLADGYKHMSLALNRTGRSIVYSCEWPLYMWPFQKPNYTEIRQYCNHWRNFADIDDSWASIKSILDWTSRNQERIVDVAGPGGWNDPDMLVIGNFGLSSDQQVTQMALWAIMAAPLFMSNDLRHISPQAKALLQDKDVIAINQDPLGKQGYQLRKGDNFEVWERPLSGDAWAVAIINRQEIGGPRSYTIPVASLGKGVACNPACFITQLLPVKRQLGFYNWTSRLKSHINPTGTVLLQLENTMQMSLKDLL
modifications: Synthetic Polypeptide sequence of Variant No. 581 of mature Human GLA
[1]
  Relative Activity of GLA Variants After No Challenge (NC): + (+ = 1.5 to 5 relative activity over Rd3BB (SEQ ID NO: 13))
[2]
  Relative Activity of GLA Variants After Challenge at pH 3.7: ++ (++ = >5 to 10 relative activity over Rd3BB (SEQ ID NO: 13))
[3]
  Relative Activity of GLA Variants After Challenge at pH 9.7: ++ (++ = >5 to 10 relative activity over Rd3BB (SEQ ID NO: 13))
